Experimental data from patent publication US20260241035A1, “FUNCTIONAL NUCLEIC ACID MOLECULE AND METHOD” (THE UNIVERSITY COURT OF THE UNIVERSITY OF EDINBURGH, priority 2022, published 2026).

Biological target: T1, SOX2 (Homo sapiens, UniProt P48431)
T1 construct: endogenous in cells; host or cells: nuclear extract of GSC7 and GSC328 (patient-derived glioblastoma stem cell lines)
Test: Biotinylated enhancer pull down from nuclear extract, western blot and mass spectrometry
Assay type: binding
Details: for SOX2 enrichment (mass spectrometry): normalised to random sequence 599
Experimental: The oligo was PCR-amplified using biotinylated primers. The PCR product was then SPRI purified to remove biotinylated primer dimers. These dsDNA fragments were incubated with nuclear extract from GSC7 and GSC328. They were then bound to streptavidin magnetic beads, washed three times and the frozen beads were sent for mass spectrometry analysis.
All the buffers were prepared the day before, passed through a […] filter (except the dialysis buffer) and left at 4° C. overnight. DTT and protease inhibitors were added just before use. The cells were scraped on the media and collected on 50 ml falcons, which were spun at 1350 rcf 5 minutes at 4° C. The pellet was resuspended in 50 ml of ice cold PBS, an aliquot was taken for cell counting, and spun again spun at 1350 rcf 5 minutes at 4° C. The pellet was then resuspended in 5 ml per 40 million cells of ice cold buffer A (10 mM HEPES pH 7.9, 1.5 mM MgCl2, 10 mM KCl, 0.5 mM DTT, protease inhibitors (Complete, Roche, 11697498001)) and incubated on ice for 10 min. The cell suspension was transferred to a glass Dounce homogenizer and dounced 40 times on ice. The cell suspension was transferred to a falcon and centrifuged at 1350 rcf for 10 min at 4° C. The supernatant was discarded (cytosolic extract) and the pellet resuspended in 100 μl per 10 million cells in ice cold buffer B (20 mM HEPES pH 7.9, 5% glycerol, 1 M NaCl, 1.5 mM MgCl2, 0.2 mM EDTA pH 8.0, 0.5 mM DTT, protease inhibitors (Complete, Roche, 11697498001)). The suspension was rotated for 30 minutes at 4° C. and transferred into a dialysis membrane (SnakeSkin, Thermo Scientific, Cat 68100). Dialysis was carried out in 500 ml of dialysis buffer (20 mM HEPES pH 7.9, 5% glycerol, 100 mM KCl, 0.83 mM EDTA pH 8.0, 1.66 mM DTT, protease inhibitors (Complete, Roche, 11697498001)) for two hours at 4° C. with rotation. Dialysis buffer was changed (500 ml) and the dialysis was continued overnight at 4° C. […] The supernatant was collected into new 1.5 ml tubes and quantified (Pierce BCA Protein Assay Kit, Thermo Scientific, Cat 23225). […]

T1 sequence (P48431 whole entry): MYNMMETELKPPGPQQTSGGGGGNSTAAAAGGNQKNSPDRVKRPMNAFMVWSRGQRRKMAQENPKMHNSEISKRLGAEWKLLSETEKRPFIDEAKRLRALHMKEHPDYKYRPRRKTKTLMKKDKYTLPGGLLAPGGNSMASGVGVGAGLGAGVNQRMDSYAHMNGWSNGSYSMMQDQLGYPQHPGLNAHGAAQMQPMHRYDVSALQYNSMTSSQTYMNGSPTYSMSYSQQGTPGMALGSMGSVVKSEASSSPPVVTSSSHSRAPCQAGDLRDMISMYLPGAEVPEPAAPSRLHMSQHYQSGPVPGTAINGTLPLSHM

B1: ID1101: enhancer fragment, SEQ ID NO: 4 (nucleic acid)
DNA: GTGAGTGTGACTCACATGCTGGCATCAGAGCCCCTCTTAGAGCTTAGAACACTGGGCCTCTGTCAGGCAAAGAAAAGGAGTCCCTATGAATAGCCATCTCCACAAATAGCAGTTACTGTCACTTCTTAAAAGACACAAGCATGGCTGGAGACCGGCACTG
SOX2 enrichment (mass spectrometry) (G7 nuclear extract): 4.4 fold | SOX2 pull down (GSC7 and GSC328): pulled down specifically | SOX2 enrichment (mass spectrometry) (GSC328 nuclear extract): 23 fold
